The supplement of paper PMC10567573

B1: BRF1 (parent)
chain: FVESSGGGSSAVGQFVSLDGAGKT

Variants of: B1
Assay: protein stability index of a GFP-peptide fusion (GPS, HEK-293T) (PSI 1-6); higher = more stable
Details: c terminus: a fixed tail appended
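Also: lentivirally expressed fusions sorted by FACS into six bins by GFP to DsRed ratio, PSI derived from sequencing read proportions per bin multiplied by bin number.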

Protein stability index, by site and new letter:
K23: R 2.21; N 2.19; T 2.55; W 2.28; V 2.12; F 1.59; I 2.02; A 2.04
G6: L 1.97; M 1.76; F 1.45; R 2.27; D 2.96; Q 2.66; A 2.37; C 1.97
V16: Q 2.97; F 2.01; L 2.36; R 2.35; T 2.38
D19: A 1.72; K 2.55; S 1.59; Q 1.98; E 2.56
V12: C 2.37; P 1.86; Y 1.29; F 2.01; M 2.52; R 2.51; H 2.25; K 2.88
S9: I 2.39; A 2.2; N 2.38; K 1.72; W 2.93; R 1.68
G7: M 2.05; H 1.68; E 3.02; L 1.52; F 2.93; I 1.81; C 2.31
S4: T 2.29; Q 2.72; F 2.01; L 1.51; D 2.49; H 2.57; W 2.63; G 2.81
G13: P 2.18; L 2.05; F 4.42; I 1.02; E 2.96; N 1.81; R 2.41; D 3.3
T24: A 2.98; N 2.15; G 2.26; V 2.33; C 2.27; P 2.48; L 2.02; K 2.44; I 2.59; S 2.19; D 2.72; H 1.79; Q 2.86
G20: V 2.41; N 2.32; S 1.75; K 1.72; Y 1.6; A 2.41
E3: D 1.97; Q 1.78; S 1.33; T 1.43; V 3.03; L 1.17
Q14: L 1.04; H 1.68; N 1.9; K 1.72
S5: A 2.57; T 2.62; R 1.92; F 3; P 2.01; C 2.03; H 1.81
F15: R 2.69; V 2.12; Y 2.59; H 3.01; W 2.06; Q 2.56; A 2.31
G22: A 3; N 2.39; S 2.47; D 3.15; W 1.84; V 2.29; H 2.65
V2: C 3.96; Y 4.16; W 4.01; L 4.72; T 4.76; A 3.78; I 3.22; P 4.97; E 5.33
F1: K 4.59; H 4.71; Y 2.75; A 4.71; S 5.15; M 4.99; G 5.26; I 4.34; E 5.04
L18: G 2.15; F 1.83; N 3.25; E 3.8; A 2.5; S 2.66; K 2.3; V 2.95; I 2.69
S17: Y 2.45; W 2.87; M 1.57; G 3.15; Q 2.81; L 2.33; H 2.54; C 1.83; I 1.23
A11: N 2; P 2.42; M 1.63; I 2.41
G8: A 2.36; C 1.95; K 2.89; I 1.84; Y 2.46
S10: I 1.37; H 1.99; Y 1.64; M 1.46; R 1.98; C 1.33; P 2.57
A21: Q 2.03; D 3.36
